Legend:
[1] = target: T1, canine FcRn complex (FcRn-α subunit and β-microglobulin), biotin labeled by BirA, captured on SA chip … (canine, UniProt A0A8I3PFR8 25-296, biotin label by BirA enzymatic biotinylation (BAP tag)); assay: SPR (Biacore), biotinylated FcRn captured on SA chip, IgG flowed, pH 7.4, 15 C
[2] = target: T1, canine FcRn complex (FcRn-α subunit and …); assay: SPR (Biacore), biotinylated FcRn captured on SA chip, IgG flowed, pH 6, 15 C
[3] = target: canine FcRn complex (FcRn-α subunit and β-microglobulin), biotin labeled by BirA, captured on SA chip (Example 5) (canine); assay: as above

T1 sequence (A0A8I3PFR8 entry or part of it, one chain of several): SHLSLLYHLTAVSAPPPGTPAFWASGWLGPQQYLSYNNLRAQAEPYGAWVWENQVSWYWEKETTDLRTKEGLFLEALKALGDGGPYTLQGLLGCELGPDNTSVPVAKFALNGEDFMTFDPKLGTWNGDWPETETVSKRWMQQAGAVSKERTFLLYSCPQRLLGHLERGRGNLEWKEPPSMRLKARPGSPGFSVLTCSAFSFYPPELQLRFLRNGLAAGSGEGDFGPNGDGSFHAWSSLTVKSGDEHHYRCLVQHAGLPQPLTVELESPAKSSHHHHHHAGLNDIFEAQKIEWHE

Row | Binder | Kd [1] [µM] | Kd [2] [µM] | Kd [3] [µM]
1 | caninized anti-IL31 antibody 34D03 (mAb1), canine IgGB, N434M (antibody) chain 1: EVQLVESGGDLVKPGGSLRLSCVASGFTFSNYGMSWVRQAPGKGLQWVATISYGGSYTYYPDNIKGRFTISRDNAKNTLYLQMNSLRAEDTAMYYCVRGYGYDTMDYWGQGTLVTVSSASTTAPSVFPLAPSCGSTSGSTVALACLVSGYFPEPVTVSWNSGSLTSGVHTFPSVLQSSGLYSLSSMVTVPSSRWPSETFTCNVAHPASKTKVDKPVPKRENGRVPRPPDCPKCPAPEMLGGPSVFIFPPKPKDTLLIARTPEVTCVVVDLDPEDPEVQISWFVDGKQMQTAKTQPREEQFNGTYRVVSVLPIGHQDWLKGKQFTCKVNNKALPSPIERTISKARGQAHQPSVYVLPPSREELSKNTVSLTCLIKDFFPPDIDVEWQSNGQQEPESKYRTTPPQLDEDGSYFLYSKLSVDKSRWQRGDTFICAVMHEALHMHYTQESLSHSPGK chain 2: EIVMTQSPASLSLSQEEKVTITCKASQSVSFAGTGLMHWYQQKPGQAPKLLIYRASNLEAGVPSRFSGSGSGTDFSFTISSLEPEDVAVYYCQQSREYPWTFGQGTKLEIK | 146 | 0.0142 | –
2 | caninized anti-IL31 antibody 34D03 (mAb1), canine IgGB, N434R (antibody) chain 1: EVQLVESGGDLVKPGGSLRLSCVASGFTFSNYGMSWVRQAPGKGLQWVATISYGGSYTYYPDNIKGRFTISRDNAKNTLYLQMNSLRAEDTAMYYCVRGYGYDTMDYWGQGTLVTVSSASTTAPSVFPLAPSCGSTSGSTVALACLVSGYFPEPVTVSWNSGSLTSGVHTFPSVLQSSGLYSLSSMVTVPSSRWPSETFTCNVAHPASKTKVDKPVPKRENGRVPRPPDCPKCPAPEMLGGPSVFIFPPKPKDTLLIARTPEVTCVVVDLDPEDPEVQISWFVDGKQMQTAKTQPREEQFNGTYRVVSVLPIGHQDWLKGKQFTCKVNNKALPSPIERTISKARGQAHQPSVYVLPPSREELSKNTVSLTCLIKDFFPPDIDVEWQSNGQQEPESKYRTTPPQLDEDGSYFLYSKLSVDKSRWQRGDTFICAVMHEALHRHYTQESLSHSPGK chain 2: EIVMTQSPASLSLSQEEKVTITCKASQSVSFAGTGLMHWYQQKPGQAPKLLIYRASNLEAGVPSRFSGSGSGTDFSFTISSLEPEDVAVYYCQQSREYPWTFGQGTKLEIK | 0.00311 | 0.000906 | –
3 | caninized anti-IL31 antibody 34D03 (mAb1), canine IgGB, N434W (antibody) chain 1: EVQLVESGGDLVKPGGSLRLSCVASGFTFSNYGMSWVRQAPGKGLQWVATISYGGSYTYYPDNIKGRFTISRDNAKNTLYLQMNSLRAEDTAMYYCVRGYGYDTMDYWGQGTLVTVSSASTTAPSVFPLAPSCGSTSGSTVALACLVSGYFPEPVTVSWNSGSLTSGVHTFPSVLQSSGLYSLSSMVTVPSSRWPSETFTCNVAHPASKTKVDKPVPKRENGRVPRPPDCPKCPAPEMLGGPSVFIFPPKPKDTLLIARTPEVTCVVVDLDPEDPEVQISWFVDGKQMQTAKTQPREEQFNGTYRVVSVLPIGHQDWLKGKQFTCKVNNKALPSPIERTISKARGQAHQPSVYVLPPSREELSKNTVSLTCLIKDFFPPDIDVEWQSNGQQEPESKYRTTPPQLDEDGSYFLYSKLSVDKSRWQRGDTFICAVMHEALHWHYTQESLSHSPGK chain 2: EIVMTQSPASLSLSQEEKVTITCKASQSVSFAGTGLMHWYQQKPGQAPKLLIYRASNLEAGVPSRFSGSGSGTDFSFTISSLEPEDVAVYYCQQSREYPWTFGQGTKLEIK | 25.3 | 0.00198 | –
4 | caninized anti-IL31 antibody 34D03 (mAb1), canine IgGB, N434Q (antibody) chain 1: EVQLVESGGDLVKPGGSLRLSCVASGFTFSNYGMSWVRQAPGKGLQWVATISYGGSYTYYPDNIKGRFTISRDNAKNTLYLQMNSLRAEDTAMYYCVRGYGYDTMDYWGQGTLVTVSSASTTAPSVFPLAPSCGSTSGSTVALACLVSGYFPEPVTVSWNSGSLTSGVHTFPSVLQSSGLYSLSSMVTVPSSRWPSETFTCNVAHPASKTKVDKPVPKRENGRVPRPPDCPKCPAPEMLGGPSVFIFPPKPKDTLLIARTPEVTCVVVDLDPEDPEVQISWFVDGKQMQTAKTQPREEQFNGTYRVVSVLPIGHQDWLKGKQFTCKVNNKALPSPIERTISKARGQAHQPSVYVLPPSREELSKNTVSLTCLIKDFFPPDIDVEWQSNGQQEPESKYRTTPPQLDEDGSYFLYSKLSVDKSRWQRGDTFICAVMHEALHQHYTQESLSHSPGK chain 2: EIVMTQSPASLSLSQEEKVTITCKASQSVSFAGTGLMHWYQQKPGQAPKLLIYRASNLEAGVPSRFSGSGSGTDFSFTISSLEPEDVAVYYCQQSREYPWTFGQGTKLEIK | 0.0218 | 0.00591 | –
5 | caninized anti-IL31 antibody 34D03 (mAb1), canine IgGB, N434T (antibody) chain 1: EVQLVESGGDLVKPGGSLRLSCVASGFTFSNYGMSWVRQAPGKGLQWVATISYGGSYTYYPDNIKGRFTISRDNAKNTLYLQMNSLRAEDTAMYYCVRGYGYDTMDYWGQGTLVTVSSASTTAPSVFPLAPSCGSTSGSTVALACLVSGYFPEPVTVSWNSGSLTSGVHTFPSVLQSSGLYSLSSMVTVPSSRWPSETFTCNVAHPASKTKVDKPVPKRENGRVPRPPDCPKCPAPEMLGGPSVFIFPPKPKDTLLIARTPEVTCVVVDLDPEDPEVQISWFVDGKQMQTAKTQPREEQFNGTYRVVSVLPIGHQDWLKGKQFTCKVNNKALPSPIERTISKARGQAHQPSVYVLPPSREELSKNTVSLTCLIKDFFPPDIDVEWQSNGQQEPESKYRTTPPQLDEDGSYFLYSKLSVDKSRWQRGDTFICAVMHEALHTHYTQESLSHSPGK chain 2: EIVMTQSPASLSLSQEEKVTITCKASQSVSFAGTGLMHWYQQKPGQAPKLLIYRASNLEAGVPSRFSGSGSGTDFSFTISSLEPEDVAVYYCQQSREYPWTFGQGTKLEIK | 0.554 | 0.0342 | –
6 | caninized anti-IL31 antibody (mAb1), canine IgGB, N434Y (antibody) chain 1: EVQLVESGGDLVKPGGSLRLSCVASGFTFSNYGMSWVRQAPGKGLQWVATISYGGSYTYYPDNIKGRFTISRDNAKNTLYLQMNSLRAEDTAMYYCVRGYGYDTMDYWGQGTLVTVSSASTTAPSVFPLAPSCGSTSGSTVALACLVSGYFPEPVTVSWNSGSLTSGVHTFPSVLQSSGLYSLSSMVTVPSSRWPSETFTCNVAHPASKTKVDKPVPKRENGRVPRPPDCPKCPAPEMLGGPSVFIFPPKPKDTLLIARTPEVTCVVVDLDPEDPEVQISWFVDGKQMQTAKTQPREEQFNGTYRVVSVLPIGHQDWLKGKQFTCKVNNKALPSPIERTISKARGQAHQPSVYVLPPSREELSKNTVSLTCLIKDFFPPDIDVEWQSNGQQEPESKYRTTPPQLDEDGSYFLYSKLSVDKSRWQRGDTFICAVMHEALHYHYTQESLSHSPGK chain 2: EIVMTQSPASLSLSQEEKVTITCKASQSVSFAGTGLMHWYQQKPGQAPKLLIYRASNLEAGVPSRFSGSGSGTDFSFTISSLEPEDVAVYYCQQSREYPWTFGQGTKLEIK | 1.9 | 0.00271 | –
7 | caninized anti-IL31 antibody 34D03 (mAb1), canine IgGB, N434S (antibody) chain 1: EVQLVESGGDLVKPGGSLRLSCVASGFTFSNYGMSWVRQAPGKGLQWVATISYGGSYTYYPDNIKGRFTISRDNAKNTLYLQMNSLRAEDTAMYYCVRGYGYDTMDYWGQGTLVTVSSASTTAPSVFPLAPSCGSTSGSTVALACLVSGYFPEPVTVSWNSGSLTSGVHTFPSVLQSSGLYSLSSMVTVPSSRWPSETFTCNVAHPASKTKVDKPVPKRENGRVPRPPDCPKCPAPEMLGGPSVFIFPPKPKDTLLIARTPEVTCVVVDLDPEDPEVQISWFVDGKQMQTAKTQPREEQFNGTYRVVSVLPIGHQDWLKGKQFTCKVNNKALPSPIERTISKARGQAHQPSVYVLPPSREELSKNTVSLTCLIKDFFPPDIDVEWQSNGQQEPESKYRTTPPQLDEDGSYFLYSKLSVDKSRWQRGDTFICAVMHEALHSHYTQESLSHSPGK chain 2: EIVMTQSPASLSLSQEEKVTITCKASQSVSFAGTGLMHWYQQKPGQAPKLLIYRASNLEAGVPSRFSGSGSGTDFSFTISSLEPEDVAVYYCQQSREYPWTFGQGTKLEIK | 6.96 | 0.0202 | –
8 | caninized anti-IL31 antibody 34D03 (mAb1), canine IgGB, N434V (antibody) chain 1: EVQLVESGGDLVKPGGSLRLSCVASGFTFSNYGMSWVRQAPGKGLQWVATISYGGSYTYYPDNIKGRFTISRDNAKNTLYLQMNSLRAEDTAMYYCVRGYGYDTMDYWGQGTLVTVSSASTTAPSVFPLAPSCGSTSGSTVALACLVSGYFPEPVTVSWNSGSLTSGVHTFPSVLQSSGLYSLSSMVTVPSSRWPSETFTCNVAHPASKTKVDKPVPKRENGRVPRPPDCPKCPAPEMLGGPSVFIFPPKPKDTLLIARTPEVTCVVVDLDPEDPEVQISWFVDGKQMQTAKTQPREEQFNGTYRVVSVLPIGHQDWLKGKQFTCKVNNKALPSPIERTISKARGQAHQPSVYVLPPSREELSKNTVSLTCLIKDFFPPDIDVEWQSNGQQEPESKYRTTPPQLDEDGSYFLYSKLSVDKSRWQRGDTFICAVMHEALHVHYTQESLSHSPGK chain 2: EIVMTQSPASLSLSQEEKVTITCKASQSVSFAGTGLMHWYQQKPGQAPKLLIYRASNLEAGVPSRFSGSGSGTDFSFTISSLEPEDVAVYYCQQSREYPWTFGQGTKLEIK | 2.75 | 0.00616 | –
9 | caninized anti-NGF antibody ZTS-841 (mAb2 of Table 4), canine IgGA, WT (antibody, from a related filing, part only) heavy: EVQLVESGGDLVKPGGSLRLSCVASGFTFSSHGMHWVRQSPGKGLQWVAVINSGGSSTYYTDAVKGRFTISRDNAKNTVYLQMNSLRAEDTAMYYCAKESVGGWEQLVGPHFDYWGQGTLVIVSSASTTAPSVFPLAPSCGSTSGSTVALACLVSGYFPEPVTVSWNSGSLTSGVHTFPSVLQSSGLHSLSSMVTVPSSRWPSETFTCNVVHPASNTKVDKPVFNECRCTDTPPCPVPEPLGGPSVLIFPPKPKDILRITRTPEVTCVVLDLGREDPEVQISWFVDGKEVHTAKTQSREQQFNGTYRVVSVLPIEHQDWLTGKEFKCRVNHIDLPSPIERTISKARGRAHKPSVYVLPPSPKELSSSDTVSITCLIKDFYPPDIDVEWQSNGQQEPERKHRMTPPQLDEDGSYFLYSKLSVDKSRWQQGDPFTCAVMHETLQNHYTDLSLSHSPGK VL: QSVLTQPTSVSGSLGQRVTISCSGSTNNIGILGASWYQLFPGKAPKLLVYGNGNRPSGVPDRFSGADSGDSVTLTITGLQAEDEADYYCQSFDTTLGAHVFGGGTHLTVL | – | – | 0.0955

Reference: patent publication US20230242635A1 (published 2023)
